# Measurements published in US20240360189A1 (LUXEMBOURG INSTITUTE OF HEALTH LIH, published 2024).
# B1: Z199 scFv anti-NKG2A.C4bp(beta).Fc[knob]/2D3 VHH anti-HER2.C4bp(beta).Fc[hole] bispecific pseudo-IgG (bispecific antibody)
# chain 1: RSQVKLQQSGGGLVKPGGSLKLSCAASGFTFSSYAMSWVRQSPEKRLEWVAEISSGGSYTYYPDTVTGRFTISRDNAKNTLYLEISSLRSEDTAMYYCTRHGDYPRFFDVWGAGTTVTVSSGGGGSGGGGSGGGGSQIVLTQSPALMSASPGEKVTMTCSASSSVSYIYWYQQKPRSSPKPWIYLTSNLASGVPARFSGSGSGTSYSLTISSMEAEDAATYYCQQWSGNPYTFGGGTKLEIKRAAASGAGGGGSSGAGGSAGGGGSSGGGGSAGGGGSIQEAPKPECEKALLAFQESKNLCEAMENFMQQLKESGMTMEELKYSLELKKAELKAKLLEPKSCDKTHTCPPCPAPELLGGPSVFLFPPKPKDTLMISRTPEVTCVVVDVSHEDPEVKFNWYVDGVEVHNAKTKPREEQYNSTYRVVSVLTVLHQDWLNGKEYKCKVSNKALPAPIEKTISKAKGQPREPQVYTLPPCRDELTKNQVSLWCLVKGFYPSDIAVEWESNGQPENNYKTTPPVLDSDGSFFLYSALTVDKSRWQQGNVFSCSVMHEALHNHYTQKSLSLSPGK
# chain 2: not shown
# notes: also called Z199/2D3
# Target: T1, HER2 on BT474 breast tumour cells (human, UniProt P04626 23-1255)
# T1 construct: whole, on cells; also called HER2-positive BT474 cells
# Experiment: flow cytometry, cross-linking of NK92MI and BT474 cells (data not shown)
binder,measurement,value
B1,binding result,binds
